Test results from publication PMC4847777.

Target: T1, RamA (His6-RamA) (Corynebacterium glutamicum (ATCC 13032?)) (UniProt Q8NML3)
T1 sequence: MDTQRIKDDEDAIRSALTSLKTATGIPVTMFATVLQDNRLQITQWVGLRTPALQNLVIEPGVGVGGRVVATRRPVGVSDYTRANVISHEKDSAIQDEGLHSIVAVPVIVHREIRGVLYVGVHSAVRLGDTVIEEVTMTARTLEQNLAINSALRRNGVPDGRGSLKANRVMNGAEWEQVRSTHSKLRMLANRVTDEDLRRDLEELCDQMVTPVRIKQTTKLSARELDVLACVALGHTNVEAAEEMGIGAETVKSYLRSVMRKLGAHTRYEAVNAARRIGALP
Experiment: EMSA
Conditions: 10 mM Tris, 1 mM dithioerythritol, 1 mM EDTA, 1 ug poly[d(I-C)], 10% glycerol, 20 ul, about 70 ng DNA, 20 min at room temperature, pH not stated; 2% agarose in …

**Q.** Which binding does the source give for “TGAAGTATTGGGATCACGCCACGCAAGATCGCGGGCATTTGCTCTAAACCACACGAGCAGGGCTGTTTGAAAAGCTGTAAATGACATGACCTAAATGATTGTACTGACTGGCACTTTAGGTCATATGTCACACCGAGTGGAATAATAAAGCTTATGCCTTTGCGTAATGTTGAGGTACCCCG (double strand) [PF3]” here?
**A.** no binding
